Assay results from patent US6905817B1, “Ret-independent signaling pathway for GDNF” (Licestia Ltd., priority 1998, dated 2005).
Entries after “also recorded” stand apart in the source; their conditions may differ.

Assays:
Ret^−/− DRG neurons = test: GDNF-evoked [Ca^2+]i changes, confocal microscopy, Ret^−/− DRG neurons; assay type: cell-based, mouse; conditions: for GDNF-evoked [Ca^2+]i elevation in heparin injected neurons: 6kD heparin injected, versus solvent/saline injected control neurons
Procedure: (§1) DRG from embryonic day 18 (E18) mice were treated with trypsin (Worthington), non-neuronal cells removed by preplating, and about 95% pure neurons cultured on poly-ornithine-laminin-coated glass coverslips in Ham's F14 medium (Imperial Laboratories) with serum substitute containing NGF, BDNF and NT-3 (all from PeproTech, 2 ng/ml if each) for at least 1 day before measurement. Neurotrophins were extensively washed out before GDNF application. GDNF was from PeproTech and donated by Cephalon, Inc. Ret-deficient mice (Schuchardt et al., 1994) were identified from heterozygote matings by the absence of kidneys and PCR-based genotyping. GFRα2-deficient mice were obtained from homozygote matings (Rossi et al., 1999).
(§2) [Ca^2+]i was measured using a Bio-Rad MRC-1024 confocal microscope equipped with an argon-krypton laser. The cells were loaded with 10 μM Calcium Green-1AM (Molecular Probes), a membrane permeable Ca^2+ dye, by 30 min incubation in serum free cell-culture media at 37 ° C. and 5 % CO2. After loading, the neurons were kept at room temperature in Dulbecco's PBS solution contained 20 mM HEPES (pH=7.4) for at least 20 min prior to the experiments. All compounds were applied to the bath by a peristaltic pump. 6 kD Heparin (Sigma) and Alexa 568 nm fluorescent dye (Molecular Probes) were loaded into the cells using Molecular Probes' pinocytotic influx loading reagent basically according to the manufacturer instructions. […] Cell injection was performed using Eppendorf microinjection system. The average intensity of fluorescence in the predefined ROI (Region Of Interest) was measured on-line using TimeCourse software from BioRad. The calibration of fluorescence traces was performed in vitro using Fmax and Fmin values obtained with the calcium calibration buffer kit (Molecular Probes). Because the calibration solutions may not reflect the intracellular environment, the experimental data are presented as delta [Ca^2+]i calculated using Kd=190 nM for Calcium Green-1.

[1] = target: T1, GFRα1 of the Ret-negative human SHEP neuroblastoma cell line (human) (UniProt P56159); test: anti-GFRα1 immunoprecipitate from the Triton X-100 insoluble fraction of SHEP cells, Western blot with pan-Src antibodies; lane 1 min of 100 ng/ml GDNF
T1 sequence (GPI anchor, looked up): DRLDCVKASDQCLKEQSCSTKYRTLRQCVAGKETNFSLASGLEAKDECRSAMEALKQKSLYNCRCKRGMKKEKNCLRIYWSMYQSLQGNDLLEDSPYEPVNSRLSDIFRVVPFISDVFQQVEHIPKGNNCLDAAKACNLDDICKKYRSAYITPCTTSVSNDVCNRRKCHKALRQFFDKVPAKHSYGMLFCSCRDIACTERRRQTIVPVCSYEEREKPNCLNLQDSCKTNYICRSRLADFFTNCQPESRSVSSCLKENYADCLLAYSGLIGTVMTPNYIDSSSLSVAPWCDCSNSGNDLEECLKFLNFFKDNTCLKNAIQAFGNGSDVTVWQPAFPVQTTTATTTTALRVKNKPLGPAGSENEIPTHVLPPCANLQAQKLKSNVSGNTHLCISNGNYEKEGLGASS

[2] = target: T1, GFRα1 of the Ret-negative human SHEP neuroblastoma cell line (human); test: anti-GFRα1 immunoprecipitate from the Triton X-100 insoluble fraction of SHEP cells, Western blot with pan-Src antibodies; lane 7 min of 100 ng/ml GDNF
[3] = target: T1, GFRα1 of the Ret-negative human SHEP neuroblastoma cell line (human); test: anti-GFRα1 immunoprecipitate from the Triton X-100 insoluble fraction of SHEP cells, Western blot with pan-Src antibodies; lane 30 sec of 100 ng/ml GDNF
[4] = target: T1, GFRα1 of the Ret-negative human SHEP neuroblastoma cell line (human); test: anti-GFRα1 immunoprecipitate from the Triton X-100 insoluble fraction of SHEP cells, Western blot with pan-Src antibodies; lane 0 min GDNF (reference lane)
[5] = system: wild type mouse DRG neurons; test: GDNF-evoked [Ca^2+]i changes, confocal microscopy with Calcium Green-1AM, wild type DRG neurons; assay type: cell-based; conditions: for change in [Ca^2+]i: 100 ng/ml, heat-inactivated at 98° C. for 15 min
Procedure: as §1, §2

GFRα2^−/− DRG neurons = test: GDNF-evoked [Ca^2+]i changes, confocal microscopy, GFRα2^−/− DRG neurons; assay type: cell-based, mouse; conditions: pre-treatment 10 μM U-73122
Procedure: as §1, §2
Transgenic GFRα2 knock-out mice were produced in our laboratory. […]

[6] = target: T1, GFRα1 of the Ret-negative human SHEP neuroblastoma cell line (human)
[7] = target: T1, GFRα1 of the Ret-negative human SHEP neuroblastoma cell line (human); test: cell-based or functional assay
[8] = target: T2, GPI-anchored GDNF family receptor α1 (GFRα1) of mouse E18 DRG neurons (mouse) (UniProt P97785); test: cell-based or functional assay
T2 sequence (GPI anchor, looked up): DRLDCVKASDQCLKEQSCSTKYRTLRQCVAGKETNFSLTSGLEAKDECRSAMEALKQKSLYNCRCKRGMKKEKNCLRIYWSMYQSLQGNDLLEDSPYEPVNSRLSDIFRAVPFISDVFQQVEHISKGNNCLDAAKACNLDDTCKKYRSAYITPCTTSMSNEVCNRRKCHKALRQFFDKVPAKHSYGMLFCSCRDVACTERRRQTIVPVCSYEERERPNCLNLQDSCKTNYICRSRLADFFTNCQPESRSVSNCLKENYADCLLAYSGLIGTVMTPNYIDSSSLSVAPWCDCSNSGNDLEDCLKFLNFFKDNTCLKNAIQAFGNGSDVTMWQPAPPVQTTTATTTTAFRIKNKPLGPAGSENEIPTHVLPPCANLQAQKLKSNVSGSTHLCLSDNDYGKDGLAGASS

heparin
GDNF-evoked [Ca^2+]i elevation in heparin injected neurons (Ret^−/− DRG neurons): did not evoke an increase in [Ca^2+]i | GDNF-evoked [Ca^2+]i elevation in heparin injected neurons (Ret^−/− DRG neurons; listed as Heparin): did not significantly respond to GDNF application | [Ca^2+]i response of neurons loaded by pinocytosis with heparin (Ret^−/− DRG neurons; heparin with Alexa dye, 100 nM GDNF or 10 μM ATP): did not respond either to 100 nM GDNF or to 10 μM ATP

GFRα1-coupled Src-type kinase of SHEP cells, co-migrating with p62Yes (from UniProt P07947 2-543) (enzyme)
fold (pan-Src band in the anti-GFRα1 immunoprecipitate, relative to 0 min) [1]: 1.5 fold | fold (pan-Src band in the anti-GFRα1 immunoprecipitate, relative to 0 min) [2]: 1.2 fold | fold (pan-Src band in the anti-GFRα1 immunoprecipitate, relative to 0 min) [3]: 1.5 fold | fold (pan-Src band in the anti-GFRα1 immunoprecipitate, relative to 0 min) [4]: 1 fold

COc1ccc2c(c1)CC[C@@H]1[C@@H]2CC[C@]2(C)[C@@H](NCCCCCCN3C(=O)C=CC3=O)CC[C@@H]12 [U-73122]
GDNF-evoked [Ca^2+]i elevation after pre-treatment ([5]; pre-treatment with U-73122): resulted in abolishing of the effect of GDNF; also recorded: resulted in the abolishing of the effect of GDNF | GDNF-evoked release of Ca^2+ from internal stores after pre-treatment (GFRα2^−/− DRG neurons): inhibited release of Ca^2+ from the internal stores | GDNF-evoked long-lasting [Ca^2+]i elevation / Ca^2+ release after pre-treatment (Ret^−/− DRG neurons; pre-treatment U-73122 (10 μM)): completely abolished; also recorded: inhibited release of Ca^2+ from the internal stores

phosphatidylinositol-specific phospholipase C [PI-PLC]
GDNF-evoked [Ca^2+]i elevation after pre-treatment ([5]; pre-treatment 1U/ml PI-PLC, GDNF 100 ng/ml): eliminates GDNF-evoked [Ca^2+]i elevation; also recorded: None of the pre-treated neurons responded | GDNF-evoked [Ca^2+]i elevation after pre-treatment (Ret^−/− DRG neurons; pre-treatment PI-PLC 1 U/ml for 1 hr at 37° C.): abolished the effect of GDNF; also recorded: did not affect [Ca^2+]i

C/C=C(/C)C(=O)O[C@H]1C(C)=C2[C@H]([C@@H]1OC(=O)CCCCCCC)[C@@](C)(OC(C)=O)C[C@H](OC(=O)CCC)[C@@]1(O)[C@H]2OC(=O)[C@@]1(C)O [thapsigargin]
change in [Ca^2+]i on application of thapsigargin ([5]; 5 μM, applied at the end of the experiments): profound elevation in [Ca^2+]i | GDNF-evoked [Ca^2+]i elevation after pre-treatment ([5]; pre-treatment 5 μM thapsigargin): abolished the effect of GDNF; also recorded: resulted in the abolishing of the effect of GDNF | change in [Ca^2+]i on thapsigargin treatment (Ret^−/− DRG neurons; 5 μM, end of experiments, PI-PLC pre-treated neurons): [Ca^2+]i was transiently increased

B1: Glial cell line-derived neurotrophic factor (GDNF) (ligand, UniProt P39905 78-211, looked up, species assumed)
Glial cell line-derived neurotrophic factor: SPDKQMAVLPRRERNRQAAAANPENSRGKGRRGQRGKNRGCVLTAIHLNVTDLGLGYETKEELIFRYCSGSCDAAETTYDKILKNLSRNRRLVSDKVGQACCRPIAFDDDLSFLDDNLVYHILRKHSAKRCGCI
in vitro kinase activity co-precipitated with anti-GFRα1 antibodies from the Triton X-100 insoluble fraction of SHEP cells, fold relative to untreated cells; lane 0 min (reference lane) [6]: 1 fold | in vitro kinase activity co-precipitated with anti-GFRα1 antibodies from the Triton X-100 insoluble fraction of SHEP cells, fold relative to untreated cells; lane 30 sec of 100 ng/ml GDNF [6]: 12 fold | in vitro kinase activity co-precipitated with anti-GFRα1 antibodies from the Triton X-100 insoluble fraction of SHEP cells, fold relative to untreated cells; lane 1 min of 100 ng/ml GDNF [6]: 10 fold | in vitro kinase activity co-precipitated with anti-GFRα1 antibodies from the Triton X-100 insoluble fraction of SHEP cells, fold relative to untreated cells; lane 7 min of 100 ng/ml GDNF [6]: 7 fold | Src-type kinase activity in co-precipitates with anti-GFRα1 antibodies from Triton X-100 insoluble fractions of SHEP cells [7]: 12 fold | [Ca^2+]i elevation in Ret^-/- DRG neurons (confocal microscopy, Calcium Green-1) (% of the neurons) [8]: 60 to 70

B2: Heat-inactivated GDNF: GDNF heat-inactivated at 98° C. for 15 min, used as specificity control (protein, UniProt P39905 78-211, looked up)
Glial cell line-derived …: SPDKQMAVLPRRERNRQAAAANPENSRGKGRRGQRGKNRGCVLTAIHLNVTDLGLGYETKEELIFRYCSGSCDAAETTYDKILKNLSRNRRLVSDKVGQACCRPIAFDDDLSFLDDNLVYHILRKHSAKRCGCI
modifications: heat-inactivated
change in [Ca^2+]i [5]: did not evoke any changes of basal [Ca^2+]i | change in [Ca^2+]i ([5]; heat-inactivated): did not evoke changes in [Ca^2+]i | change in [Ca^2+]i (Ret^−/− DRG neurons; prolonged application, heat-inactivated, 100 ng/ml): did not respond with [Ca^2+]i elevations
